# Results reported in patent publication US9663800B2, “Alkane exporter and its use” (Nanyang Technological University, priority 2012, dated 2017).
# B1: ABC2: Y. lipolytica ABC transporter, SEQ ID NO. 4, GenBank CAG82364, heterologously expressed in S. cerevisiae (protein, listed as Yarrowia lipolytica)
# chain: MEQTPPDYTGLDKNIDAEVRSIAESMYQTRREGVNDSDTDEELQRTNTIQPNLNVNPFLDTSDPQLDPLSKEFNSRKWIKTILGLKARFGNSRSISAGVSFKNLSAFGYGGGNDYQKTFTNSVMAIGPMIKKVLGGNKGSEVQILRHFDGLVRAGETCVVLGRPGSGCTTFLKSVACETYGFHLGEKSEWNYQGVPRDVMQKNARGEIVYNAEVDVHFPHLTVGDTLLFAALARTPQNRLEGVSREQHATHVRDVSMAMLGLTHTMDTKVGNDFVRGVSGGERKRVSIAESVVCGAPLQCWDNSTRGLDAANATEFIRSLRLSAEMTDASMFVSLYQASQEAYDMFDKVCVLYEGRQIYFGKTTEAKQFFLDLGFDCADRQTTGDFLTSLTNPIERIIRPGWESRVPRTPDDFEKCWLESEARQLLLQDIDEFNNEFVLGGPALDNFMGLRKDAQAKHTRVQSPYTISWPMQTRLCLWRGFLRIKGDMSTDIATVFGNFVMALVLSSMFYNMPQTTESFFSRGALLFFAILINAFASILEILSLYEQRPIVDKQNRYAMYHPAADALAAIITTFPTKTLTLVSVNLTIYFMTNLRREVGPFFIFFLFSLLCTMAMSMIFRTIGSVTKTLEQALAPASIIILALVIYTGFSLPISYMHGWARWINWLNPVAYGFEAVMVNEFRNREYECSMFVPSGGAYENVSLDYRSCAAVGAEPGLRFVNGDAFINQSYEYYNAHLWRNMGILFGFIIFFGAFYLFAVEYIQGAKSKGEVLVFRKEHIKKQRKEKNGDIESGVTMAGEKGTQESESSNTSINLQAQRGIYQWKDVCYDIKVKDGERRLLDHVDGFVKPGTLTALMGASGAGKTTLLDVLADRKSTGVVTGEMLVNGEHRDGSFQRKTGYVQQQDLHTATATVRESLEFSALLRQPSSIPESEKLAYVDEVIRILEMETYADAVVGVPGEGLNVEQRKRLTIGVELAAKPELLLFLDEPTSGLDSQTAWSIVKLLKKLAANGQAILCTIHQPSAILFQEFDRLLFLASGGRTVYYGDIGPQSSILTEYFERNGADPCPKQGNPAEWMLEVIGAAPGSTAKRDWPVVWAESPERAAKREELDEMARTVERVQTNTTERDSTGYSDSDQFAVGWWTQFKIVSKRQFQALWRTPSYLWSKVFLCAASAIFIGFSFFKAPNDMQGLQNKMFSFFMLFLIFNTVVEQIIPQFDKMRELYEARERSSKTYSWQVFMGSNMVVELIWQFFMGVIVFFCFYYPVGFQWTAEYNDSVHERGGLFFLYVLLLFLYNSTFAHMLIAGIDNKDTAAQIGTLLFTLMLLFCGVLATKEQMPGFWVFMYRVSPLTYFVGGMMATGMGRAPVTCSPHELVRFPAVPGKSCGEYMDGFISALGDSAGYLVSSSADMCEYCPMKSSDQFLDSVDISYTQRWRNWGILWAYPLFNIFAAFALYYFFRVPKKSKAQKA
# B2: ABC3: Y. lipolytica ABC transporter, SEQ ID NO. 5, GenBank CAG82646, heterologously expressed in S. cerevisiae (protein, listed as Yarrowia lipolytica)
# chain: MTDPVPITQDPTIYSSQQDAEIRSLAESIHSQHSNNSNNSTELTNPYVDTSDPELDPWSGQFNSRKWSRTILGLKRRYGTSKEITAGVSFKNLGAYGYGGGADYQKTVANAVLGLEGVVRTLFHLEKKEDKVQILSDFNGVLWPGETCVVLGRPGSGCTTLLKSIACETYGFQLDKETEWNYQGIPRKIMQKTCRGEIVYNAEVDVHFPHLTVGDTLMFASLARTPQNRFDGVTREQYAKHTRDVTMASLGLSHTLDTKVGNDFVRGVSGGERKRVSIAESIVCGSPLQCWDNSTRGLDAATATEFLRWLRHSAELTGASMFVSLYQASQEAYELFDKVTVLYEGQQIYFGPGEQAKQYFEEMGFECPHRQTTGDFLTSITSPAERIVAPGFEGKTPRTASEFAERWRQSQAYANLQEEIERFNTEFPVGGNRVADIMELKQEKQSDHIKVSSPYTISIPMQVKLCLTRGFQRLRGDLSMALTTVLGNFVVALILSSMFYNMPEDTSSFFSRGALLFFAMLMNAMSSVLEIIVLYELRPIVEKHQRYAMYHPFCEALASIICDFPTKFLTMLCVNVTLYFMSNLRREAGPFFIFFLFTLLCVLAMSMIFRTIAAVTKTLQQALAPAAVIILALIIYTGFTLPISYMRGWARWINYIDPIAYGFEAVMVNEFRNREFPCALFIPQQSTYDQLGSPYQGCMAVGAKPGERFVNGDRYLEMAFDYSQAHLWRNLGIMFGFILFFAFTYLTAVEFIQSAKSKGEVLVFLRSSLKQRKKRAHLMDVEANAEKVGAAQDREILVQQEEGQQEETSSCTPSDSTPKDIFQWKDVCYDIKVKGGEKRLLDNVDGWVKPGTLTALMGCSGAGKTTLLDVLADRKATGVITGDMRVNGQKRDASFQRKTGYVQQQDLHTATSTVREALEFSALLRQPSNVPKAEKIAYVDEVIDILEMQAYADAVVGVPGEGLNVEQRKRLTIGVELAAKPELLLFLDEPTSGLDSQTAWSIICLLKKLANRGQAILCTIHQPSAILFQEFDRLLFMTLGGKTVYYGDIGANSSALINYFESKGADPCPEEANPAEWMLAAIGAAPGSIAKHDWAVVWNESEERARERDLLDKMAEELAAQSTHDEKNELVTSKSVGSSQTSSSSYSAKSQYATSQATQLYYLTKRLWTYYWRSPRYIWSKLLMSIASALFIGFSYYKASQDIQGLQNQMFAFFMLFLIFVIIMVQILPHFVAQRELYEARERSSMAYSWQAFMGSNILVELPWQTLVAVLVFFCFYYPIGLQNNATGHLGERGALFFLLLWSFYVYNSTFAHMMGAAFENKENAATIGYLLFALCLIFCGVLATKEDMPHFWIFMYRVSPLTYLISGLLSAGVGETRVECTDNELVLFKPMNGTNCGKYMHPFMEGLGHTDMPMGYLVDPSATDMCGYCPISNTNGYLDQIDVKYSQRWRNYGILFAYPAFNVFMAFAFYYIFRVPKKSRKQKA
# Key:
# [1] = tested on: ABC2 mRNA; experiment: Quantitative RT-PCR of ABC2 transcripts after alkane treatment; type: cell-based; conditions: Y. lipolytica CLIB122, 24 h alkane treated vs. untreated, normalized to actin, p<0.05
# Description: FIG. 3. mRNA transcripts levels of ABC2 and ABC3 in Y. lipolytica. Quantitative RT-PCR analysis of ABC2 (A) and ABC3 (B) in Y. lipolytica cells corresponding to treatment with octane, nonane, decane, undecane and dodecane (C8-C12). Each value of qRT-PCR was normalized to β-actin expression levels and expressed as the fold change relative to the levels detected in control samples, which were cells without alkane treatment and set equal to 1. Error bars represent the SD of triplicate.
# To assess whether ABC1, ABC2, ABC3 and ABC4 are involved in alkane transport in Y. lipolytica, we analysed the effects of alkanes with different chain length (C8-C12) on the transcription levels of these four ABC transporter genes using quantitative RT-PCR.
# Total RNA samples from 24 h alkane treated and untreated Y. lipolytica CLIB122 cells were prepared using RNeasy Mini Kit (Qiagen), followed by cDNA synthesis using H minus Reverse transcriptase kit (Fermentas). Quantitative RT-PCR analysis was performed on a Bio-Rad iQ5 real-time PCR detection system using SsoFast EvaGreen Supermix kit (Bio-Rad). The actin gene (YALI0D08272g) was used as reference gene for Y. lipolytica. Relative mRNA levels were derived using comparative CT method.
# [2] = tested on: S. cerevisiae BY4741; experiment: Alkane susceptibility test in liquid culture; type: cell-based, Saccharomyces cerevisiae; conditions: for decane tolerance increase: cells expressing the transporter vs. control (0.25% decane), OD600; for survival in 20% undecane / decane concentration tolerated: cells expressing the transporter; for decane concentration tolerated: control 0.25% decane
# Method: (§1) FIG. 2. Alkane susceptibility test for S. cerevisiae. The alkane susceptibility was tested in cells expressing ABC2/3 or with empty plasmid. (A) Alkane susceptibility test on agar plate. Serial dilutions of cells expressing ABC2/3 were spotted on agar plates with alkanes (decane, undecane) as vapour phase. Plates were incubated at 28° C. for 2 days. (B) Alkane susceptibility test in liquid culture. Overnight cell culture was diluted into induction medium (final OD600=0.4) with different alkanes (decane & undecane) concentrations. The plates were incubated for 48 hr at 28° C. The OD600 value of each sample was determined and plotted against its corresponding alkane concentration. Symbols for strains are: control sample with empty plasmid (open circle), cells expressing ABC2 (filled circle), cell expressing ABC3 (filled triangle).
# Overnight culture was diluted into 5 ml induction medium in 50 ml glass bottle (Sigma) at an initial OD600 of 0.4. Alkanes were added as different final concentration. Bottles were sealed tightly with butyl rubber stopper (Sigma) and silver aluminum seal (Sigma). Liquid culture was performed at 28° C. with shaking. Growth was monitored by measuring the OD600 at different time point. Cell culture used for time point OD checking was collected from the glass bottle using needle and syringe.
# To further analyze the effect of ABC2 and ABC3 toward decane and undecane, alkane susceptibility tests in liquid culture were conducted. […] With the expression of ABC2, decane tolerance was boosted about 80-fold (20% vs. 0.25% decane) and cells can survive in 20% undecane. For ABC3, decane tolerance is increased slightly by about 3-fold (0.75% vs. 0.25% decane) and cells are resistant to 20% undecane. It is apparent that the expression of ABC2 and ABC3 transporters improved the tolerance toward C10 and C11 alkanes.
# [3] = tested on: S. cerevisiae BY4741; experiment: Intracellular alkane accumulation (GC-FID) in cells expressing ABC2/3; type: cell-based, Saccharomyces cerevisiae; conditions: S. cerevisiae BY4741 expressing the transporter, 48 h, control with empty plasmid; for lower intracellular decane level relative to the control: 0.5% decane; for reduction of intracellular undecane level compared to the control sample: 20% undecane
# Method: FIG. 1. Intracellular alkane accumulation by ABC2 and ABC3. S. cerevisiae BY4741 with and without ABC2/3 were cultured under exposure of 0.5% alkane or 20% undecane. After 48 h incubation, intracellular alkane levels were measured. Intracellular alkane levels were normalized to that of control carrying empty plasmid. Data shown are the mean±SD of four biological replicates.
# Intracellular alkane accumulation was analysed with GC-FID after 48 h incubation with 0.5% decane or 20% undecane.
# After induction for 48 h with or without addition of alkanes, S. cerevisiae cells transformed with pYES2, pYES2ABC2 and pYES2ABC3 were harvested at 6000 g for 5 min at 4° C. After washing with 50 mM Tris.Cl, cells were equally divided into two parts, one part for alkane GC analysis and the other for determination of total protein concentration. For GC analysis, cell pellets were re-suspended in freshly prepared Chloroform/Methanol (v/v, 2:1). Dodecane was added into cell suspension as an internal standard. Acid-washed glass beads were added until the suspension was covered. Cells were then lysed by mechanical agitation using FastPrep-24 (MPBio) for 6 min at 6 m/s. The crude extract was obtained by pipette. After addition of autoclaved ddH2O, the crude extract was emulsified for 10 min by inversion. After centrifuge, the crude extract was separated into two phases. The bottom phase containing alkane was transferred into a new 1.5 ml microcentrifuge tube and purified as above with HPLC grade chloroform and autoclaved ddH2O until particulate matter was no longer observable. The purified solution was transferred into a clear GC vial for GC analysis. To check the total protein concentration, Cell pellets were re-suspended into 50 mM Tris.Cl and lysed via mechanical agitation with acid-washed glass beads using FastPrep-24 for 6 min at 6 m/s. Protein concentration of obtained crude extract was determined using the Bradford protein assay (Bio-Rad). Intracellular alkane levels were normalized to internal standard and cell lysate protein content.
# [4] = tested on: S. cerevisiae BY4741; experiment: Alkane susceptibility test on agar plate; type: cell-based, Saccharomyces cerevisiae; conditions: cells expressing the transporter, 28° C., 2 days; for cell tolerance toward decane: decane as vapour phase; for cell tolerance toward undecane: undecane as vapour phase
# Method: as §1
# Alkane susceptibility test on plates was performed according to the methods of Mauersberger et al.. Exponentially growing cells in induction medium were centrifuged and re-suspended with induction medium at OD600=1. Ten microliter aliquots of successive 10-fold dilutions (non diluted, 10-1, 10-2, 10-3) of cells were spotted onto the induction medium plate. Medium chain alkanes were supplied as vapour phase by placing 200 μl alkane on a sterile filter paper in the lid of the petri dish. Plates were incubated at 28° C. for 2 days.
# Toxicity test was implemented to study the effect of ABC2 and ABC3 on the tolerance of the cells toward alkanes. The toxic effects of alkanes on S. cerevisiae with ABC2 and ABC3 were measured through alkane susceptibility test on agar plates. […] It was observed that the expression of ABC2 would lead higher tolerance toward decane than ABC3.
Molecule,mRNA levels of ABC2 [1],"alkane concentration causing a significant decrease in viability of the control cells ([2]; control cells with empty plasmid, 48 hr, 28° C.) [%]",lower intracellular decane level relative to the control [3] [fold],reduction of intracellular undecane level compared to the control sample [3],cell tolerance toward decane [4],cell tolerance toward undecane [4],"decane tolerance increase ([2]; 48 hr, 28° C.)",survival in 20% undecane [2],"decane concentration tolerated ([2]; 48 hr, 28° C.) [%]"
CCCCCCCCCCC [undecane],significantly increased,20,–,–,–,–,–,–,–
CCCCCCCC [octane],significantly increased,–,–,–,–,–,–,–,–
B1,–,–,~5,approximately 30 fold,considerably improved,considerably improved,about 80 fold,can survive,20
B2,–,–,~5,approximately 30 fold,considerably improved,considerably improved,about 3 fold,resistant,0.75
